Here are results for 1 molecule from patent publication US10428347B2, “Herbicide-detoxifying enzymes and uses thereof” (priority 2017, dated 2019).

For test [1], the system named is soybean. Put plainly: Spray tank dicamba treated with ChD crude cell lysate, applied to field soybean. In kind it is in vivo. As to conditions: field soybean V2-V3, 2 ml of tank sample (about 200 mg/L dicamba, with or without 5% v/v crude cell lysate for 10 minutes), one week after application (FIG. 15). On the procedure:
Chlorothalonil dehalogenase (ChD, SEQ ID NO: 168) was prepared as a crude cell lysate as described above in Example 5. […] A 5% v/v solution of the crude cell lysate containing the ChD enzyme was added and the tank was run for an additional 10 minutes. […] Each of the samples was frozen immediately after collection from the tank. Samples were transported to the field on ice to ensure that enzyme activity was halted.

Test [2] in a line: Absorbance spectra assay of dicamba degradation by ChD or CAC. As to conditions: dicamba 200 mg/L + enzyme at 20X dilution (5 μM), one hour at 37° C.
Test [3] is described as follows: Absorbance spectra assay of 2,4-D degradation by ChD or CAC. As to conditions: one hour at 37° C. In kind it is biochemical.
Test [4] can be described thus: Absorbance spectra assay of mecoprop degradation by ChD or CAC. In kind it is biochemical. As to conditions: one hour at 37° C. On the procedure:
(§1) Small scale (1 mL) assays were performed to evaluate the ability of ChD and CAC to degrade MCPA-4 amine or mecoprop.
(§2) MCPA-4 amine and mecoprop have absorbance maxima (Amax) at approximately 230 and 280 nm. […] MCPA-4 amine or mecoprop end product generation is directly proportional to the degradation MCPA-4 amine or mecoprop, respectively.

Test [5] is described as follows: Absorbance spectra assay of MCPA-4 amine degradation by ChD or CAC. In kind it is biochemical. As to conditions: one hour at 37° C. On the procedure: as §1, §2
The nature of test [6]: Sequestration of dicamba by ChD (3 kDa filter, absorbance at 230 nm). In kind it is binding. As to conditions: dicamba 100 mg/L, 10, 20, 30 and 40 uL enzyme solution, 5 minutes at 37° C. (FIG. 18). On the procedure: To four of the tubes, enzyme solution was added to four of the tubes at 10, 20, 30, and 40 uL rates. The two tubes without the enzyme solution served as controls for the experiment. When the enzyme was added, five of the tubes (one of the 0 uL enzyme tubes, and all of the tubes with the enzyme added) were placed in the Eppendorf Thermomixer R for 5 minutes, at 37° C., and 800 rpm. After the incubation period, the tubes were removed from the heat and placed on ice to stop the reaction. […] These new tubes were spun at 1400 rpm for five minutes. When the spin was completed, 100 uL of the top and bottom fractions were added into a 96-well UV-Star plate. Spectral readings were then taken from 200 nm to 340 nm. The reads for the buffer alone controls were subtracted from the experimental values. The relative difference between the control without enzyme added and the experimental samples with enzyme added was calculated at 230 nm.

B1: ChD: chlorothalonil dehalogenase from Pseudomonas species strain CTN-3, amino acid SEQ ID NO: 168 (protein, listed as Pseudomonas sp.)
chain: MPPGCSGLCSFVGLTMPLKFSGVLCASLLTITLSVAAHATELILDFNKVQMRSQQLAPGVYAHLPADSAELNAKGGVAGTSGGLIVGTRGAMLIETMLNRRLFDQVQALAKKEALGLPLLYAVNTSYHGDHSYGNMYLKAPTRVIQSTKTRDYVDGHLADDKAFMVKNFGAGRGVEQITARTGDILVPPGGRVSVDLGGKTVEIIDFGFAQTGGDLFVWEPQSKVMWTGNAVVASKPALPWLLDGKLVETLATLQKVYDFLPPDATIVPGHGVPMAREGLRWHLDYLAAVQAGVKDALARKLSLEQTVTELKMPEFRGYVLFDWVHPDLNVPAAYKDLAARP
On to B1, for which the “damage to or protection of soybean crop (size and growth vs untreated control)” value in test [1] is “almost complete protection of the plants”. Further, the “Percent (%) increase in 259 λ (end product formed) compared to dicamba control” value in test [2] turned out to be 501%. Moreover, the results for the “Percent (%) increase in 252 λ, (end product formed) compared to 2,4-D control” value in test [3] (2,4-D 200 mg/L + enzyme at 20X dilution (5 μM)) and in test [3] (2,4-D 200 mg/L + enzyme at 40X dilution ([…])) were 196% and 122%, respectively. For the same molecule, the “Percent (%) increase in 252 λ (end-product formed) compared to Mecoprop control” value in test [4] (mecoprop 200 mg/L + enzyme at 20X dilution (5 μM)) amounted to 164%; in test [4] (mecoprop 200 mg/L + enzyme at 40X dilution ([…])) it was 129%. The “Percent (%) increase in 252 λ (end product formed) compared to MCPA-4-Amine control” value in test [5] (MCPA-4 amine 200 mg/L + enzyme at 20X dilution (5 μM)) was determined as 464%; in test [5] (MCPA-4 amine 200 mg/L + enzyme at 40X dilution ([…])), 128.9%. The “dicamba in a bound state (relative absorbance at 230 nm of 3 kDa filter fractions)” value in test [6] is reported as “dose-dependent effect”.
